Numbering of substitutions follows the chain as printed. In names and notes the source's numbering stands. A value given as a limit tells only on which side of the number the result lay.

The target in test [1] is cynomolgus DLL3 protein (cynomolgus). In words: Octet, single concentration of trispecific (60 nM), cynomolgus DLL3. Background: Biolayer interferometry detects binding as a change in optical thickness at a sensor tip.
The target of test [2] is human DLL3 on DMS-153 cells (human) (UniProt Q9NYJ7). The test is described as follows: cell-based or functional assay.
Test [3] deals with biotinylated human DLL3 protein expressed as a human IgG1 fusion protein (human) (UniProt Q9NYJ7). In words: Octet, several concentrations of trispecific (60, 20, 6.67, 2.22 nM), human DLL3.
In test [4] the target is human DLL3 on DLL3 expressing cancer cell lines (human) (UniProt Q9NYJ7). In words: cell-based or functional assay.
Test [5] concerns the target biotinylated version of human DLL3 protein expressed as a human IgG1 fusion protein (human) (UniProt Q9NYJ7). In words: Octet BLI, biotinylated DLL3-IgG1 on streptavidin tips, single 50 nM.

Chain of cynomolgus DLL3 protein (cynomolgus) (chain, as listed by the source): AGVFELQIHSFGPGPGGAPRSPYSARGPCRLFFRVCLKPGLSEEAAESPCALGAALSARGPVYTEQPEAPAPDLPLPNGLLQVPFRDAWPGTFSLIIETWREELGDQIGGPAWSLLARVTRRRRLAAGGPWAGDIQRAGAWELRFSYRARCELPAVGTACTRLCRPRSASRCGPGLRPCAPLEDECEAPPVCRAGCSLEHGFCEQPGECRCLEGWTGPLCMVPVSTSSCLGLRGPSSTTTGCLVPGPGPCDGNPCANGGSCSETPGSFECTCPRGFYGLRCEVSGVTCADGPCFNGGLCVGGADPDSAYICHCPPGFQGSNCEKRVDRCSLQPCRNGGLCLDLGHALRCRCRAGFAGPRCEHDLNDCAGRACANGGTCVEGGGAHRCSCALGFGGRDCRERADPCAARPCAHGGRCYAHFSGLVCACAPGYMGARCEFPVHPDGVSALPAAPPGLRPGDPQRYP
Chain of biotinylated human DLL3 protein expressed as a human IgG1 fusion protein (human) (Q9NYJ7 27-492): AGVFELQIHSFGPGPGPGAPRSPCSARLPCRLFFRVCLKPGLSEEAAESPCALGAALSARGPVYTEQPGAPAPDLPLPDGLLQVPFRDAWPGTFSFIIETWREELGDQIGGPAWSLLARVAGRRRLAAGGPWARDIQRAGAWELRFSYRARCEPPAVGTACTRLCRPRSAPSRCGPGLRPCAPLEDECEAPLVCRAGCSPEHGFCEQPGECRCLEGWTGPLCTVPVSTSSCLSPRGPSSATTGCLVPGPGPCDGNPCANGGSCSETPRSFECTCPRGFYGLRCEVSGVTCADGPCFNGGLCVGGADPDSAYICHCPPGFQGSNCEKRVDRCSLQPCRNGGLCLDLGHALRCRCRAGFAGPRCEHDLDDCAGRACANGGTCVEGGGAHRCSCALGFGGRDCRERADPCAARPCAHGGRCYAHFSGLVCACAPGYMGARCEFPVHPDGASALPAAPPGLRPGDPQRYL
Chain of human DLL3 on DMS-153 cells (human) (Q9NYJ7 27-618 limits assumed): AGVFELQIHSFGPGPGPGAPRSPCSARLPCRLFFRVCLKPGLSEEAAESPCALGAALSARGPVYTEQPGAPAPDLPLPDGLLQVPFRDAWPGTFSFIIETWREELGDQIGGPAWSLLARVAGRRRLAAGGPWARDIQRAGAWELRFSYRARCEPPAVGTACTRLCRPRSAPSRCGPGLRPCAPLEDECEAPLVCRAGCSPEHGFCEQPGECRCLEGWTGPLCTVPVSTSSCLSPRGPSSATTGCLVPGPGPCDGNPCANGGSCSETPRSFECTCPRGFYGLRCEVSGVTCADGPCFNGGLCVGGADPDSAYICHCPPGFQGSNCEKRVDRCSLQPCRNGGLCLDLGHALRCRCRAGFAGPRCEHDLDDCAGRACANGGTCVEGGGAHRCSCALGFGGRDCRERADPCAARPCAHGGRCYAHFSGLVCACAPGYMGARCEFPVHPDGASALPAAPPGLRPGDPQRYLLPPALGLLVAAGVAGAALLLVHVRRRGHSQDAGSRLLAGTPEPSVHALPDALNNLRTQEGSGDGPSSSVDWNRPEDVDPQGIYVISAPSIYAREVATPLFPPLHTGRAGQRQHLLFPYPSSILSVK
Chain of human DLL3 on DLL3 expressing cancer cell lines (human) (Q9NYJ7 27-618 limits assumed): as above
Chain of biotinylated version of human DLL3 protein expressed as a human IgG1 fusion protein (human) (Q9NYJ7 27-492 limits assumed): as the sequence (Q9NYJ7 27-492) above

B1: anti-DLL3 trispecific protein, DLL3 binder 2E02 (protein, part only; not given: anti-CD3 fragment and anti-albumin domain, part only)
chain, part: EVQLVESGGGLVQPGGSLTLSCVASGSTSAINAMGWYRRAPGKQRELVAGISSDGSKVYVDSVKGRFTISRDNAKNSVYLQMNSLRAEDTAVYYCYYFRTVSGSSQRYWGQGTLVTVSSGGGGSGGGSGGGGSGGGSHHHHHH
As a reminder, the Kd is the constant that tells how readily two partners part at equilibrium. Low readings indicate higher affinity, high ones lower affinity. B1: the dissociation constant (Kd) in test [1] was found to be 3.4 nM. In test [2], this molecule displayed a DMS-153 TDCC EC50 (conditioned medium, human T cells) of 0.059 nM and a TDCC EC50 (CHO expressed, purified protein; method of Example 2, DMS-153 cells) of 0.12 nM. Besides, in test [3], the equilibrium dissociation constant (Kd) is 4.4 nM.

B2: anti-DLL3 trispecific protein, DLL3 binder 1A011 (protein, part only; not given: anti-CD3 fragment and anti-albumin domain, part only)
chain, part: B1 chain, part with A30S, M34I, V60I, Q106Y
Regarding B2, the dissociation constant Kd was found to be 3.6 nM in test [1] and 3.5 nM in test [3]. The DMS-153 TDCC EC50 (conditioned medium, human T cells) in test [2] turned out to be 0.051 nM. The molecule also yielded a TDCC EC50 (CHO expressed, purified protein; method of Example 2, DMS-153 cells) in test [2] of 0.17 nM.

B3: anti-DLL3 trispecific protein containing 2E05-M106Q (protein, part only; not given: CD3 binder and albumin binder, part only)
chain, part: B1 chain, part with T28P, A30S, M34Y, V60S, R107S
B3: in test [4], the TDCC EC50, DMS-153 cells, purified CHO protein stood at 41 nM and the fold more potent in TDCC than DH43 was 6.6 fold.

B4: anti-DLL3 trispecific protein, DLL3 binder 1C03 (protein, part only; not given: CD3 fragment and albumin sdAb, part only)
chain, part: B1 chain, part with A30S, G35A, G55N, V60A, S102G, Q106M
With B4, the DMS-153 TDCC EC50 (conditioned medium, human T cells) in test [2] was 0.096 nM.

B5: anti-DLL3 trispecific protein containing 1H012 (protein, part only; not given: anti-CD3 fragment and anti-albumin sdAb, part only)
chain, part: B1 chain, part with A30S, Q106M, R107P
Consider B5, for which, in test [4], the TDCC EC50, DMS-153 cells was 28 nM and the fold increase in TDCC potency over DH43 was > 7 fold.

B6: anti-DLL3 trispecific protein, DLL3 binder 2A04 (protein, part only; not given: CD3 binder and albumin binder, part only)
chain, part: B1 chain, part with A30S, G35A, V60T, V101T, Q106M
With B6, the DMS-153 TDCC EC50 (conditioned medium, human T cells) in test [2] is 0.081 nM.

B7: anti-DLL3 trispecific protein, DLL3 binder 2H02 (protein, part only; not given: anti-CD3 fragment and anti-albumin domain, part only)
chain, part: B1 chain, part with A30S, G35A, V48A, V60A, R99H, Q106M
In test [1], B7 gave a Kd of 5.2 nM. Also, in test [2], the DMS-153 TDCC EC50 (conditioned medium, human T cells) worked out at 0.031 nM and the TDCC EC50 (CHO expressed, purified protein; method of Example 2, DMS-153 cells) came to 0.096 nM. The equilibrium dissociation constant (Kd) in test [3] was determined as 4.4 nM.

B8: anti-DLL3 trispecific protein, DLL3 binder 2E05-M106Y (protein, part only; not given: CD3 binder and albumin binder, part only)
chain, part: B1 chain, part with T28P, A30S, M34Y, V60S, Q106Y, R107S
Take B8: the TDCC EC50 (CHO expressed, purified protein; method of Example 2, DMS-153 cells) in test [2] is 0.063 nM.

B9: anti-DLL3 trispecific protein, DLL3 binder 2E05 (protein, part only; not given: CD3 binder and albumin binder, part only)
chain, part: B1 chain, part with T28P, A30S, M34Y, V60S, Q106M, R107S
As to B9, in test [1], the Kd stood at 4.8 nM. In test [2], this molecule had a DMS-153 TDCC EC50 (conditioned medium, human T cells) of 0.033 nM and a TDCC EC50 (CHO expressed, purified protein; method of Example 2, DMS-153 cells) of 0.072 nM. Also, in test [3], the Kd worked out at 3.5 nM.

B10: anti-DLL3 trispecific protein, DLL3 binder 2C04 (protein, part only; not given: CD3 fragment and albumin sdAb, part only)
chain, part: B1 chain, part with A30S, I31R, V58L, V60A, S102L, Q106M
Take B10: in test [2], the TDCC EC50 (CHO expressed, purified protein; method of Example 2, DMS-153 cells) was 0.043 nM.

B11: anti-DLL3 trispecific protein, DLL3 binder 1H012 (protein, part only; not given: CD3 binder and albumin binder, part only)
chain, part: B1 chain, part with A30S, Q106M, R107P
For B11, the equilibrium dissociation constant (Kd) in test [1] is 4.3 nM; in test [3] it was 2.9 nM. Further, the DMS-153 TDCC EC50 (conditioned medium, human T cells) in test [2] came out at 0.028 nM. For the same molecule, the TDCC EC50 (CHO expressed, purified protein; method of Example 2, DMS-153 cells) in test [2] amounted to 0.063 nM.

B12: anti-DLL3 trispecific protein, DLL3 binder 2E011 (protein, part only; not given: anti-CD3 fragment and anti-albumin sdAb, part only)
chain, part: B1 chain, part with A30S, M34I, K57S, V60A, T100R, Q106M
In test [2], B12 came in with a DMS-153 TDCC EC50 (conditioned medium, human T cells) of 0.19 nM.

B13: anti-DLL3 trispecific protein, DLL3 binder 2E05-M106Q (protein, part only; not given: CD3 binder and albumin binder, part only)
chain, part: B1 chain, part with T28P, A30S, M34Y, V60S, R107S
Molecule B13 gave a TDCC EC50 (CHO expressed, purified protein; method of Example 2, DMS-153 cells) in test [2] of 0.041 nM.

B14: anti-DLL3 trispecific protein, DLL3 binder 2F11 (protein, part only; not given: anti-CD3 and anti-albumin domains, part only)
chain, part: B1 chain, part with T28V, A30S, V60K, Q106M, R107G
B14 yielded a DMS-153 TDCC EC50 (conditioned medium, human T cells) in test [2] of 0.049 nM.

B15: anti-DLL3 trispecific protein containing 4D09-M34L (protein, part only; not given: anti-CD3 fragment and anti-albumin sdAb, part only)
chain, part: EVQLVESGGGLVQPGGSLTLSCAASGSSVKFLSLAWYRQAPGKKRELVAGISADGSTDYILSVKGRFTISRDNAKNSVYLQMNSLRAEDTAVYYCYAYEWTTRYTYWGQGTLVTVSSGGGGSGGGSGGGGSGGGSHHHHHH
Consider B15, for which, in test [4], the TDCC EC50, DMS-153 cells, purified CHO protein was 54 nM and the fold more potent in TDCC than DH6 is 4.4 fold.

B16: anti-DLL3 trispecific protein, DLL3 binder 4B07 (protein, part only; not given: anti-CD3 fragment and anti-albumin sdAb, part only)
chain, part: B15 chain, part with K30G, L34M, D58V, L61D, E99R
In test [2], B16 gave a DMS-153 TDCC EC50 (conditioned medium, human T cells) of 0.067 nM.

B17: anti-DLL3 trispecific protein containing 4H011 (protein, part only; not given: CD3 binder and albumin binder, part only)
chain, part: B15 chain, part with K30S, F31R, L34M, A53V, L61D, E99R, Y104L
In the case of B17, in test [4], the TDCC EC50, DMS-153 cells was 36 nM and the fold increase in TDCC potency over DH6 was > 8 fold.

B18: anti-DLL3 trispecific protein, DLL3 binder 3A011 (protein, part only; not given: anti-CD3 fragment and anti-albumin domain, part only)
chain, part: B15 chain, part with K30S, A53T, L61D, E99R, T101R
Consider B18, for which the results for the Kd in test [1] and in test [3] were 8.8 nM and 7.3 nM, respectively.

B19: anti-DLL3 trispecific protein, DLL3 binder 4E02 (protein, part only; not given: anti-CD3 and anti-albumin domains, part only)
chain, part: B15 chain, part with S28Q, K30S, L34M, D58V, L61D, E99R, T101S
Consider B19, for which the DMS-153 TDCC EC50 (conditioned medium, human T cells) in test [2] amounted to 0.041 nM.

B20: anti-DLL3 trispecific protein containing 4A010 (protein, part only; not given: anti-CD3 and anti-albumin domains, part only)
chain, part: B15 chain, part with K30R, L34M, D58V, L61D, E99R, T105K
On to B20, for which the equilibrium dissociation constant (Kd) in test [5] is 2.3 nM.

B21: anti-DLL3 trispecific protein, DLL3 binder 4B011 (protein, part only; not given: CD3 binder and albumin binder, part only)
chain, part: B15 chain, part with K30T, L34M, D58V, L61D, E99R, Y104G
Consider B21, for which, in test [2], the DMS-153 TDCC EC50 (conditioned medium, human T cells) turned out to be 0.048 nM.

B22: anti-DLL3 trispecific protein, DLL3 binder 4D09 (protein, part only; not given: anti-CD3 fragment and anti-albumin domain, part only)
chain, part: B15 chain, part with L34M
Turning to B22, the equilibrium dissociation constant (Kd) in test [1] stood at 8.2 nM. In test [2], the DMS-153 TDCC EC50 (conditioned medium, human T cells) amounted to 0.052 nM and the TDCC EC50 (CHO expressed, purified protein; method of Example 2, DMS-153 cells) came to 0.06 nM. This molecule also showed a Kd in test [3] of 8.1 nM.

B23: anti-DLL3 trispecific protein, DLL3 binder 4H04 (protein, part only; not given: anti-CD3 fragment and anti-albumin sdAb, part only)
chain, part: B15 chain, part with L34M, I51V, L61D
As for B23, the DMS-153 TDCC EC50 (conditioned medium, human T cells) in test [2] stood at 0.051 nM.

B24: anti-DLL3 trispecific protein, DLL3 binder 4D09-M34L (protein, part only; not given: anti-CD3 fragment and anti-albumin sdAb, part only)
chain, part: B15 chain, part
In test [2], B24 gave a TDCC EC50 (CHO expressed, purified protein; method of Example 2, DMS-153 cells) of 0.054 nM.

B25: anti-DLL3 trispecific protein, DLL3 binder 4C06 (protein, part only; not given: anti-CD3 fragment and anti-albumin sdAb, part only)
chain, part: B15 chain, part with G26N, K30S, F31K, L34M, D58A, L61D, E99R, T101S
In test [2], B25 gave a DMS-153 TDCC EC50 (conditioned medium, human T cells) of 0.068 nM.

B26: anti-DLL3 trispecific protein, DLL3 binder 3A02 (protein, part only; not given: CD3 binder and albumin binder, part only)
chain, part: B15 chain, part with K30S, D58A, L61D, E99R, T101R
With B26, the equilibrium dissociation constant (Kd) in test [1] was 9.5 nM; in test [3], 7.8 nM.

B27: anti-DLL3 trispecific protein, DLL3 binder 3H011 (protein, part only; not given: CD3 binder and albumin binder, part only)
chain, part: B15 chain, part with L34M, D58V, L61D, E99R, T101P
For B27, the DMS-153 TDCC EC50 (conditioned medium, human T cells) in test [2] turned out to be 0.12 nM.

B28: anti-DLL3 trispecific protein, DLL3 binder 4H011 (protein, part only; not given: CD3 fragment and albumin sdAb, part only)
chain, part: B15 chain, part with K30S, F31R, L34M, A53V, L61D, E99R, Y104L
Take B28: the Kd was 5.7 nM in test [1] and 3.9 nM in test [3]. In test [2], the DMS-153 TDCC EC50 (conditioned medium, human T cells) is 0.036 nM.

B29: anti-DLL3 trispecific protein, DLL3 binder 3D07 (protein, part only; not given: anti-CD3 and anti-albumin domains, part only)
chain, part: B15 chain, part with K30R, L34M, L61D, E99S
As for B29, the DMS-153 TDCC EC50 (conditioned medium, human T cells) in test [2] was 0.061 nM.

B30: anti-DLL3 trispecific protein, DLL3 binder 3C04 (protein, part only; not given: CD3 binder and albumin binder, part only)
chain, part: B15 chain, part with S28H, K30S, L34M, S56P, L61D, E99R, T101D
With B30, the Kd in test [1] worked out at 5.7 nM; in test [3] it was 4 nM. The DMS-153 TDCC EC50 (conditioned medium, human T cells) in test [2] was 0.052 nM.

B31: anti-DLL3 trispecific protein, DLL3 binder 3H06 (protein, part only; not given: CD3 fragment and albumin sdAb, part only)
chain, part: B15 chain, part with K30S, F31Q, L34M, I60F, L61D, E99R, Y104G
Molecule B31 showed a DMS-153 TDCC EC50 (conditioned medium, human T cells) in test [2] of 0.12 nM.

(Values after patent US20200095340A1.)
